Data as given in PMC2891831, “Insight into the Mechanisms of Adenovirus Capsid Disassembly from Studies of Defensin Neutralization” (PLoS Pathogens, 2010).
Entries after “also recorded” stand apart in the source; their conditions may differ.

Columns and labels:
[1] = system: HAdV-4 (species E); test: Infection assay (hexon staining), HAdV-4; type: cell-based, human adenovirus; details: 15 µM HD5 or HNP1, A549 cells, hexon staining at ~48 h, vs. no defensin
Procedure: (§1) To determine whether sensitivity to α-defensins is a general property of HAdVs, serotypes representative of HAdV species A–F were tested for infectivity in the presence of 15 µM HD5 or HNP1 (Figure 1). Wild type HAdVs rather than vectors were used for these studies, and infectivity was assessed by staining for hexon production. […] These studies indicate that sensitivity to α-defensins is species specific. In addition, particular HAdV serotypes are not equally sensitive to all defensins, indicating defensin sequence specificity as well.
(§2) Figure 1 Sensitivity to neutralization by alpha-defensins is AdV species specific. HAdVs were incubated with 15 µM HD5 (A) or HNP1 (B) and assessed for infectivity on A549 cells. Data are the mean of the percent infectivity compared to control cells infected with each virus in the absence of defensin for at least three independent experiments ± SD. The upper limit for quantification of this assay is 200%. […]
(§3) Prior to use in this assay, each virus stock was titrated on A549 cells. […] In parallel, wells were infected with two-fold serial dilutions of each virus to establish a standard curve for quantification with an upper limit of 200%. […] Total well fluorescence above background was quantified with ImageJ software. For each virus, samples were quantified by nonlinear regression against the standard curve using Prism software (GraphPad Software, Inc., La Jolla, CA).

[2] = system: HAdV-41; test: Infection assay (hexon staining), HAdV-41; type: cell-based, human adenovirus; details: 15 µM HD5, A549 cells
Procedure: as §1, §2, §3

[3] = system: PB/GYAR; test: Virus-defensin binding assay, PB/GYAR; set-up: species or system human adenovirus; details: studies equivalent to Figure 2B, data not shown
Procedure: We then combined the GYAR substitution with the PB substitution in a single construct (PB/GYAR).
To measure HD5 binding to HAdV-5 and -51, HD5 was serially diluted in PBS and mixed with 5 µg purified virus. After 1 h incubation on ice, one half of each sample was separated by ultracentrifugation [209,000×g (avg.) for 2 hrs at 4°C] on a discontinuous gradient consisting of 300 µl of 30% nycodenz and 200 µl of 80% nycodenz in 50 mM NaCl, 20 mM HEPES pH 7.4 using an SW55ti rotor with adaptors (Beckman Coulter, Inc.). The visible virus band was collected. The other half of each sample was used to make a standard curve for quantification. All samples were boiled in reducing loading buffer and separated using a 16% PAGEgel (Expedeon, Inc., San Diego, CA) or 10–20% Tris-Tricine gel (Bio-Rad, Hercules, CA). The gels were stained with Deep Purple (GE Healthcare) and imaged on a Typhoon Trio. Virus bands were quantified using ImageQuant NT software (GE Healthcare). The amount of HD5 in each sample was normalized to protein V and hexon. The amount of HD5 in the centrifuged samples was then quantified against the standard curve using Prism software. Affinity and stoichiometry were estimated from the average data of at least three independent experiments using Prism software.

[4] = system: HAdV-7; test: Virus-defensin binding, HAdV-7; set-up: species or system human adenovirus
[5] = system: HAdV species A; test: Infection assay (hexon staining), HAdV species A; type: cell-based, human adenovirus; details: 15 µM HD5, A549 cells, hexon staining at ~48 h, vs. no defensin, at least three independent experiments
Procedure: as §1, §2, §3

[6] = system: HAdV-51p; test: Virus-defensin binding assay, HAdV-51p; set-up: species or system human adenovirus
Description: Figure 2 HD5 binding to HAdV. A) HD5 binding to a representative defensin-sensitive serotype (HAdV-5) was quantified by an equilibrium-binding assay. Data are the mean of the number of HD5 molecules bound per virion at the indicated HD5 concentrations from at least three independent experiments ± SD. Binding curves were fitted using Prism software. B) Binding of HD5 to additional defensin-sensitive (HAdV-7p) and resistant (HAdV-19c, -25p, -51p) serotypes expressed as a percent of HD5 bound to HAdV-5. Data are the mean of two or three independent experiments ± SD.
We assessed HD5 binding to additional serotypes after incubation with 20 µM HD5 (Figure 2B). The sensitive serotype HAdV-7p bound 69.3±15.9% of the amount of HD5 bound to HAdV-5 in parallel samples; whereas, the corresponding values for the resistant serotypes HAdV-19c, -25p, and -51p were 32.5±7.5%, 3.3±5.8%, and 24.6±12.0%, respectively.
To measure HD5 binding to HAdV-5 and -51, HD5 was serially diluted in PBS and mixed with 5 µg purified virus. […] The other half of each sample was used to make a standard curve for quantification. […] Virus bands were quantified using ImageQuant NT software (GE Healthcare). […] The amount of HD5 in the centrifuged samples was then quantified against the standard curve using Prism software. […]

B1: HD5: human alpha-defensin; synthetic, obtained from Peptides International; three disulfide bonds (PDB 1ZMP) (peptide, UniProt Q01523 20-94, looked up)
Defensin alpha 5: ESLQERADEATTQKQSGEDNQDLAISFAGNGLSALRTSGSQARATCYCRTGRCATRESLSGVCEISGRLYRLCCR
modifications: Defensin-5
Question: With B1 as the molecule, how does the “sensitivity to neutralization (infectivity)” value [1] read?
Answer: moderately sensitive

Question: What about the “sensitivity to HD5” value [2] of the same molecule?
Answer: resistant

Question: What about the “amount of HD5 bound compared to HAdV-5” value [3] of the same molecule?
Answer: did not detect a reduction in the amount of HD5 bound; also recorded: did not result in a noticeable reduction in overall HD5 binding

Question: And the “level of HD5 binding (in words)” value [4]?
Answer: specific binding

Question: And the “sensitivity to neutralization (infectivity)” value [5]?
Answer: sensitive

Question: And the “HD5 bound, percent of HD5 bound to HAdV-5” value ([6]; 20 µM HD5, mean of two or three independent experiments ± SD)?
Answer: 24.6±12.0%

Question: What about the “level of HD5 binding (in words)” value ([6]; HAdV-51p) of the same molecule?
Answer: only a low level of binding
